In patent publication US20180177842A1 (CANIMGUIDE THERAPEUTICS, published 2018):

Target: T1, P3028 (VFDEFKPLVEEPQNLIK, SEQ ID NO: 185), His-tagged (human)
T1 construct: Synthetic fragment of human serum albumin (positions 397-413); used in solution as His-tagged peptide PGE73; also called PGE73; not shown: His-tag
T1 peptide: VFDEFKPLVEEPQNLIK
Test: PEPSCAN ELISA; peptide on chip, His-P3028 added;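 further: peroxidase color development with ABTS and H2O2 substrate, OD405 imaged by CCD camera with image processing and taken as raw values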

Binder	RAMPO Score
KKLDTFFVKLSRFTER [KKLDTFFVKLSRFTER (SEQ ID NO: 356)]	483 rampo units
KKLDTFFVKSSLFTER [KKLDTFFVKSSLFTER (SEQ ID NO: 341)]	351 rampo units
KKLDTFYVKLSLFTER [KKLDTFYVKLSLFTER (SEQ ID NO: 463)]	334 rampo units
KKLDTIFVKLSLFTER [KKLDTIFVKLSLFTER (SEQ ID NO: 314)]	466 rampo units
KKLDTFFVQLSLFTER [KKLDTFFVQLSLFTER (SEQ ID NO: 469)]	330 rampo units
KKLDTFFVVLSLFTER [KKLDTFFVVLSLFTER (SEQ ID NO: 523)]	248 rampo units
KKLDTFPVKLSLFTER [KKLDTFPVKLSLFTER (SEQ ID NO: 437)]	356 rampo units
KKLDTPFVKLSLFTER [KKLDTPFVKLSLFTER (SEQ ID NO: 317)]	497 rampo units
KKLDTFFVKLYLFTER [KKLDTFFVKLYLFTER (SEQ ID NO: 415)]	402 rampo units
KKLGTFFVKLSLFTER [KKLGTFFVKLSLFTER (SEQ ID NO: 515)]	264 rampo units
KKLETFFVKLSLFTER [KKLETFFVKLSLFTER (SEQ ID NO: 299)]	417 rampo units
KKLDTFGVKLSLFTER [KKLDTFGVKLSLFTER (SEQ ID NO: 96)]	347 rampo units
KKLDWFFVKLSLFTER [KKLDWFFVKLSLFTER (SEQ ID NO: 311)]	418 rampo units
KKLDTFFVTLSLFTER [KKLDTFFVTLSLFTER (SEQ ID NO: 445)]	347 rampo units
KKLDTFFVKLSSFTER [KKLDTFFVKLSSFTER (SEQ ID NO: 357)]	478 rampo units
KKLDTFHVKLSLFTER [KKLDTFHVKLSLFTER (SEQ ID NO: 433)]	364 rampo units
KKLDTWFVKLSLFTER [KKLDTWFVKLSLFTER (SEQ ID NO: 444)]	348 rampo units
KKLDTGFVKLSLFTER [KKLDTGFVKLSLFTER (SEQ ID NO: 446)]	347 rampo units
KKLDTHFVKLSLFTER [KKLDTHFVKLSLFTER (SEQ ID NO: 466)]	332 rampo units
KKLDTSFVKLSLFTER [KKLDTSFVKLSLFTER (SEQ ID NO: 401)]	432 rampo units
KKLDVFFVKLSLFTER [KKLDVFFVKLSLFTER (SEQ ID NO: 429)]	374 rampo units
KKLDTTFVKLSLFTER [KKLDTTFVKLSLFTER (SEQ ID NO: 318)]	481 rampo units
KKLDTFFVKLSYFTER [KKLDTFFVKLSYFTER (SEQ ID NO: 475)]	320 rampo units
KKLDTFFVWLSLFTER [KKLDTFFVWLSLFTER (SEQ ID NO: 526)]	245 rampo units

Binder	RAMPO Score
KKLPTFFVKLSLFTER [KKLPTFFVKLSLFTER (SEQ ID NO: 435)]	364 rampo units
KKLDTQFVKLSLFTER [KKLDTQFVKLSLFTER (SEQ ID NO: 410)]	410 rampo units
KKLLTFFVKLSLFTER [KKLLTFFVKLSLFTER (SEQ ID NO: 491)]	303 rampo units
KKLDTFFVKLSTFTER [KKLDTFFVKLSTFTER (SEQ ID NO: 358)]	437 rampo units
KKLDTYFVKLSLFTER [KKLDTYFVKLSLFTER (SEQ ID NO: 434)]	364 rampo units
KKLNTFFVKLSLFTER [KKLNTFFVKLSLFTER (SEQ ID NO: 498)]	296 rampo units
KKLDTFFVMLSLFTER [KKLDTFFVMLSLFTER (SEQ ID NO: 509)]	283 rampo units
KKLDTFFVKVSLFTER [KKLDTFFVKVSLFTER (SEQ ID NO: 343)]	658 rampo units
KKLDTFFVKNSLFTER [KKLDTFFVKNSLFTER (SEQ ID NO: 337)]	365 rampo units
KKLDTLFVKLSLFTER [KKLDTLFVKLSLFTER (SEQ ID NO: 411)]	408 rampo units
KKLDTFMVKLSLFTER [KKLDTFMVKLSLFTER (SEQ ID NO: 321)]	712 rampo units
KKLDTFFVKPSLFTER [KKLDTFFVKPSLFTER (SEQ ID NO: 338)]	436 rampo units
KKLHTFFVKLSLFTER [KKLHTFFVKLSLFTER (SEQ ID NO: 479)]	317 rampo units
KKLDTFSVKLSLFTER [KKLDTFSVKLSLFTER (SEQ ID NO: 323)]	700 rampo units
KKLDTMFVKLSLFTER [KKLDTMFVKLSLFTER (SEQ ID NO: 315)]	467 rampo units
KKLDTFTVKLSLFTER [KKLDTFTVKLSLFTER (SEQ ID NO: 324)]	517 rampo units
KKLDTFFVKLVLFTER [KKLDTFFVKLVLFTER (SEQ ID NO: 419)]	392 rampo units
KKLDTFFVKWSLFTER [KKLDTFFVKWSLFTER (SEQ ID NO: 482)]	316 rampo units
KKLDTKFVKLSLFTER [KKLDTKFVKLSLFTER (SEQ ID NO: 460)]	337 rampo units
KKLITFFVKLSLFTER [KKLITFFVKLSLFTER (SEQ ID NO: 300)]	430 rampo units
KKLDYFFVKLSLFTER [KKLDYFFVKLSLFTER (SEQ ID NO: 312)]	425 rampo units
KKLDTNFVKLSLFTER [KKLDTNFVKLSLFTER (SEQ ID NO: 316)]	446 rampo units
KKLKTFFVKLSLFTER [KKLKTFFVKLSLFTER (SEQ ID NO: 512)]	274 rampo units
KKLDTFFVKLSWFTER [KKLDTFFVKLSWFTER (SEQ ID NO: 360)]	409 rampo units

Binder	RAMPO Score
KKLDTFVVKLSLFTER [KKLDTFVVKLSLFTER (SEQ ID NO: 325)]	527 rampo units
KKLDTFFVKYSLFTER [KKLDTFFVKYSLFTER (SEQ ID NO: 344)]	382 rampo units
KKLDTFFVKQSLFTER [KKLDTFFVKQSLFTER (SEQ ID NO: 339)]	470 rampo units
KKLDTFFVKLWLFTER [KKLDTFFVKLWLFTER (SEQ ID NO: 472)]	324 rampo units
KKLMTFFVKLSLFTER [KKLMTFFVKLSLFTER (SEQ ID NO: 423)]	384 rampo units
KKLDTFIVKLSLFTER [KKLDTFIVKLSLFTER (SEQ ID NO: 397)]	446 rampo units
KKLDTFFVSLSLFTER [KKLDTFFVSLSLFTER (SEQ ID NO: 511)]	274 rampo units
KKLDTFFVNLSLFTER (also called 31136) [KKLDTFFVNLSLFTER (SEQ ID NO: 518)]	256 rampo units
KKLDTFRVKLSLFTER [KKLDTFRVKLSLFTER (SEQ ID NO: 432)]	369 rampo units
KKLDTVFVKLSLFTER [KKLDTVFVKLSLFTER (SEQ ID NO: 319)]	547 rampo units
KKLDTFWVKLSLFTER [KKLDTFWVKLSLFTER (SEQ ID NO: 425)]	380 rampo units
KKLDTRFVKLSLFTER [KKLDTRFVKLSLFTER (SEQ ID NO: 486)]	309 rampo units
KKLFTFFVKLSLFTER [KKLFTFFVKLSLFTER (SEQ ID NO: 426)]	380 rampo units
KKLQTFFVKLSLFTER [KKLQTFFVKLSLFTER (SEQ ID NO: 448)]	345 rampo units
KKLDTFFVKRSLFTER [KKLDTFFVKRSLFTER (SEQ ID NO: 340)]	439 rampo units
KKLDTFLVKLSLFTER [KKLDTFLVKLSLFTER (SEQ ID NO: 320)]	517 rampo units
KKLDTFQVKLSLFTER [KKLDTFQVKLSLFTER (SEQ ID NO: 322)]	511 rampo units
KKLDTFNVKLSLFTER [KKLDTFNVKLSLFTER (SEQ ID NO: 443)]	348 rampo units
KKLDTFFVKTSLFTER [KKLDTFFVKTSLFTER (SEQ ID NO: 342)]	399 rampo units
KKLDTFFVKLSVFTER [KKLDTFFVKLSVFTER (SEQ ID NO: 359)]	545 rampo units
KKLDTFFVRLSLFTER [KKLDTFFVRLSLFTER (SEQ ID NO: 331)]	374 rampo units
KKLDTFFVKMSLFTER [KKLDTFFVKMSLFTER (SEQ ID NO: 336)]	460 rampo units
KKLDTFFVKLTLFTER [KKLDTFFVKLTLFTER (SEQ ID NO: 349)]	520 rampo units
